Measurements: the supplement of paper PMC10567573

B1: ZC3H15 (parent)
chain: ENLFTGEDLDELEEELNTLDLEE

Variants of: B1
Test: protein stability index of a GFP-peptide fusion (GPS, HEK-293T) (PSI 1-6); higher = more stable
Details: c terminus: native
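Note: lentivirally expressed fusions sorted by FACS into six bins by GFP to DsRed ratio, PSI derived from sequencing read proportions per bin multiplied by bin number.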

Variant | protein stability index
ENLFTGNDLDELEEELNTLDLEE [E7N] | 4.68
ENLFTGADLDELEEELNTLDLEE [E7A] | 4.55
ENLFTGHDLDELEEELNTLDLEE [E7H] | 4.66
ENLFTGLDLDELEEELNTLDLEE [E7L] | 3.98
ENLFTGPDLDELEEELNTLDLEE [E7P] | 4.16
ENLFTGMDLDELEEELNTLDLEE [E7M] | 4.69
ENLFTGYDLDELEEELNTLDLEE [E7Y] | 4.23
ENLFTGSDLDELEEELNTLDLEE [E7S] | 5
ENLFTGIDLDELEEELNTLDLEE [E7I] | 4.49
ENLFTGRDLDELEEELNTLDLEE [E7R] | 4.69
ENLFTGCDLDELEEELNTLDLEE [E7C] | 4.38
ENLFTGQDLDELEEELNTLDLEE [E7Q] | 4.11
ENLFTGWDLDELEEELNTLDLEE [E7W] | 4.54
ENLFTGKDLDELEEELNTLDLEE [E7K] | 4.01
ENLFTGDDLDELEEELNTLDLEE [E7D] | 4.93
ENLFTGFDLDELEEELNTLDLEE [E7F] | 4.42
ENLFTGVDLDELEEELNTLDLEE [E7V] | 3.99
ENLFTGEDNDELEEELNTLDLEE [L9N] | 4.1
ENLFTGEDGDELEEELNTLDLEE [L9G] | 4.03
ENLFTGEDSDELEEELNTLDLEE [L9S] | 4.49
ENLFTGEDEDELEEELNTLDLEE [L9E] | 4.54
ENLFTGEDPDELEEELNTLDLEE [L9P] | 4.55
ENLFTGEDRDELEEELNTLDLEE [L9R] | 3.18
ENLFTGEDVDELEEELNTLDLEE [L9V] | 4.68
ENLFTGEDYDELEEELNTLDLEE [L9Y] | 2.68

Variant | protein stability index
ENLFTGEDADELEEELNTLDLEE [L9A] | 4.25
ENLFTGEDQDELEEELNTLDLEE [L9Q] | 3.82
ENLFTGEDMDELEEELNTLDLEE [L9M] | 4.69
ENLFTGEDKDELEEELNTLDLEE [L9K] | 2.38
ENLFTGEDTDELEEELNTLDLEE [L9T] | 4
ENLFTGEDCDELEEELNTLDLEE [L9C] | 4.43
ENLFTGEDIDELEEELNTLDLEE [L9I] | 5
ENLFTGEDDDELEEELNTLDLEE [L9D] | 3.87
ENLFTGEDHDELEEELNTLDLEE [L9H] | 3.51
ENLFTGEDWDELEEELNTLDLEE [L9W] | 3.09
ENLFTGEDFDELEEELNTLDLEE [L9F] | 3.48
ENLFNGEDLDELEEELNTLDLEE [T5N] | 4.41
ENLFFGEDLDELEEELNTLDLEE [T5F] | 4.19
ENLFGGEDLDELEEELNTLDLEE [T5G] | 4.5
ENLFMGEDLDELEEELNTLDLEE [T5M] | 4.69
ENLFPGEDLDELEEELNTLDLEE [T5P] | 4.66
ENLFSGEDLDELEEELNTLDLEE [T5S] | 4.32
ENLFWGEDLDELEEELNTLDLEE [T5W] | 4.51
ENLFIGEDLDELEEELNTLDLEE [T5I] | 4.05
ENLFYGEDLDELEEELNTLDLEE [T5Y] | 4.25
ENLFCGEDLDELEEELNTLDLEE [T5C] | 5.08
ENLFEGEDLDELEEELNTLDLEE [T5E] | 4.65
ENLFHGEDLDELEEELNTLDLEE [T5H] | 4.56
ENLFVGEDLDELEEELNTLDLEE [T5V] | 3.27
ENLFTGEDLDELEEDLNTLDLEE [E15D] | 3.74

Variant | protein stability index
ENLFTGEDLDELEEHLNTLDLEE [E15H] | 4.29
ENLFTGEDLDELEEALNTLDLEE [E15A] | 4.94
ENLFTGEDLDELEEILNTLDLEE [E15I] | 4.04
ENLFTGEDLDELEEFLNTLDLEE [E15F] | 3.37
ENLFTGEDLDELEEGLNTLDLEE [E15G] | 5.2
ENTFTGEDLDELEEELNTLDLEE [L3T] | 4.71
ENQFTGEDLDELEEELNTLDLEE [L3Q] | 4.62
ENSFTGEDLDELEEELNTLDLEE [L3S] | 5.2
ENVFTGEDLDELEEELNTLDLEE [L3V] | 4.6
ENWFTGEDLDELEEELNTLDLEE [L3W] | 3.55
ENRFTGEDLDELEEELNTLDLEE [L3R] | 4.71
ENYFTGEDLDELEEELNTLDLEE [L3Y] | 3.6
ENLFTGEDLDECEEELNTLDLEE [L12C] | 4.9
ENLFTGEDLDEEEEELNTLDLEE [L12E] | 4.79
ENLFTGEDLDEMEEELNTLDLEE [L12M] | 3.43
ENLFTGEDLDEAEEELNTLDLEE [L12A] | 3.23
ENLFTGEDLDEFEEELNTLDLEE [L12F] | 3.84
ENLFTGEDLDEDEEELNTLDLEE [L12D] | 5.07
ENLFTGEDLDEQEEELNTLDLEE [L12Q] | 3.69
ENLFTGEDLDESEEELNTLDLEE [L12S] | 4.59
ENLFTGEDLDEREEELNTLDLEE [L12R] | 3.52
ENLFTGEDLDEYEEELNTLDLEE [L12Y] | 1.93
ENLFTGEDLDEKEEELNTLDLEE [L12K] | 4.01
ENLFTGEDLDENEEELNTLDLEE [L12N] | 4.38
ENLFTGEDLDEIEEELNTLDLEE [L12I] | 4.14

Variant | protein stability index
ENLFTGEDLDEGEEELNTLDLEE [L12G] | 4.72
ENLFTGEDLDEPEEELNTLDLEE [L12P] | 4.82
ENLCTGEDLDELEEELNTLDLEE [F4C] | 5.49
ENLITGEDLDELEEELNTLDLEE [F4I] | 5.19
ENLMTGEDLDELEEELNTLDLEE [F4M] | 4.5
ENLDTGEDLDELEEELNTLDLEE [F4D] | 5.08
ENLKTGEDLDELEEELNTLDLEE [F4K] | 3.66
ENLETGEDLDELEEELNTLDLEE [F4E] | 4.31
ENLQTGEDLDELEEELNTLDLEE [F4Q] | 4.69
ENLHTGEDLDELEEELNTLDLEE [F4H] | 4.55
ENLSTGEDLDELEEELNTLDLEE [F4S] | 5.13
ENLWTGEDLDELEEELNTLDLEE [F4W] | 4.5
ENLNTGEDLDELEEELNTLDLEE [F4N] | 4.74
ENLYTGEDLDELEEELNTLDLEE [F4Y] | 4.6
ENLLTGEDLDELEEELNTLDLEE [F4L] | 4.58
ENLRTGEDLDELEEELNTLDLEE [F4R] | 4.67
ENLATGEDLDELEEELNTLDLEE [F4A] | 4.68
ENLGTGEDLDELEEELNTLDLEE [F4G] | 4.83
ENLVTGEDLDELEEELNTLDLEE [F4V] | 3.57
ENLPTGEDLDELEEELNTLDLEE [F4P] | 5.03
ENLFTGEDLDELREELNTLDLEE [E13R] | 4.37
ENLFTGEDLDELQEELNTLDLEE [E13Q] | 5.06
